US20040086946A1, “Methods of isolation of active compounds and activated targets” (priority 2002, published 2004)
No end group written: not given here.

What was measured:
scFv-P2Y6 = experiment: Activation of scFv-P2Y6 in HEK293 cells, aequorin luminescence; type: cell-based, human; details: non-anchored agonists
Excerpt: A fusion protein was constructed between a single chain antibody against fluorescein (Boder et al. (2000) Proc. Natl. Acad. Sci. USA 97:10701-5) (docking domain) and the human P2Y6 receptor (GenBank accession number: NP_004145) (active domain). The target fusion protein, termed scFv-P2Y6, was co-transfected with the calcium-sensitive luminescent protein aequorin into HEK293 cells. After two days, the transfected cells were pre-loaded for two hours with the aequorin substrate coelenterazine (Molecular Probes) and then various amounts of UDP, UTP or ATP were added immediately followed by measurement of luminescence (FIG. 5A). The activation profile of these three agonists on the fusion protein closely mimicked their activation of the unfused P2Y6 receptor (not shown). […] In contrast to ATP alone, an anchored compound, a fluorescein-ATP conjugate (FITC-ATP; Perkin-Elmer), was able to activate the scFv-P2Y6 receptor at low concentrations (FIG. 5B) with a half-maximal stimulation occurring at about 10 nM.

melanocortin receptors = details: cited from earlier work
FcR-MC4R = biological target: T1, FcR-MC4R (Homo sapiens, UniProt P12314+P32245); experiment: Inhibition by AGRP of FcR-MC4R activation, CRE-luciferase reporter; type: cell-based
T1 construct: extracellular domain (residues 1-292, with its own signal peptide) of human Fc-gammaR1 = CD64 (NM_000566); expressed in transfected cells; host or cells: HEK293
Method: Activation of FcR-MC4R was assayed 6 hours after compound addition using a co-transfected CRE-luciferase construct (pCRE-Luc; Stratagene) and measuring luminescence after lysis and addition of the luciferase substrate (Tropix Luciferase Assay Kit).

[1] = biological target: FcR-MC4R fusion protein (human); experiment: cell-based or functional assay
[2] = biological target: FcR-MC4R fusion protein (human); experiment: cell-based or functional assay; remark: listed apart in the source
[3] = test system: Alpha1-mc4r, Alpha2-MC4R, OGH-MC4R and HCG-MC4R; experiment: Glycoprotein hormone subunit-based extracellular 2-hybrid screen, CRE-luciferase reporter in HEK293 cells; type: cell-based; details: relative to no ligand control; two days after transfection
Method: Signal sequences were included at the beginning of each construct.
Two days after transfection, the activity of the target fusion protein was measured by assaying luciferase activity as relative light units (Y axis, FIG. 7) on a luminometer.

FcR-MC4R fusion protein (human), sequence (P12314 other isoform, or with tags, fused parts or gaps, form in doubt): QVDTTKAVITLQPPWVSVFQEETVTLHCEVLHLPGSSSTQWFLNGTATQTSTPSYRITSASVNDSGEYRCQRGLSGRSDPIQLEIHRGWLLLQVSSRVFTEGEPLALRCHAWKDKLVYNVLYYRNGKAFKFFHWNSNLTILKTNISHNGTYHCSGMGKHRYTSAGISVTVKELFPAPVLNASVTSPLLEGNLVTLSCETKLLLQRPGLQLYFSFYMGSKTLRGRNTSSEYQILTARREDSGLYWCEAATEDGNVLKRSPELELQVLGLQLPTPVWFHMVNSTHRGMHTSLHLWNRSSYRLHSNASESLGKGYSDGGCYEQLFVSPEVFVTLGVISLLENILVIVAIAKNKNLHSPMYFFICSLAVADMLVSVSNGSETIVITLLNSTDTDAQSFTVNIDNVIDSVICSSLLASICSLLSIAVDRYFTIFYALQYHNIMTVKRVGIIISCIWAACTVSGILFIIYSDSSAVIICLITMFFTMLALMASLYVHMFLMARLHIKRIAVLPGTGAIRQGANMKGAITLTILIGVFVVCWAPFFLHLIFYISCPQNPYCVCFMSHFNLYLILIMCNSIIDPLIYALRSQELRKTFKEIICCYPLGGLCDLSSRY
T1 sequence (P12314+P32245 fused): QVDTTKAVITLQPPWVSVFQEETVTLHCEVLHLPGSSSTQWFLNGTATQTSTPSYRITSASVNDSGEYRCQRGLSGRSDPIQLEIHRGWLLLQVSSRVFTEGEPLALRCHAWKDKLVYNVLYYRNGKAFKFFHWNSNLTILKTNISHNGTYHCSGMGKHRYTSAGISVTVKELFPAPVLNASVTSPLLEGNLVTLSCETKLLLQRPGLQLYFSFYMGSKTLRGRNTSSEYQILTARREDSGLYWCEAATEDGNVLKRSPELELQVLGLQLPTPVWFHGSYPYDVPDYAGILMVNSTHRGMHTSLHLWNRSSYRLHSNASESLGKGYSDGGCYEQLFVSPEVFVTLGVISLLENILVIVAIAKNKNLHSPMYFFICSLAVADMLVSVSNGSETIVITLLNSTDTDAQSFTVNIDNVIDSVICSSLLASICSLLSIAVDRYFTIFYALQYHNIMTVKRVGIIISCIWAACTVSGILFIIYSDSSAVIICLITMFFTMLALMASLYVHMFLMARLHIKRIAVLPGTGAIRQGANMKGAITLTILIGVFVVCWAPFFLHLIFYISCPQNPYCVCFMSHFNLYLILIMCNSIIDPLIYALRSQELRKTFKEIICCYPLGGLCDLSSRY
Alpha1-mc4r, Alpha2-MC4R, OGH-MC4R and HCG-MC4R, sequence (P32245 whole entry): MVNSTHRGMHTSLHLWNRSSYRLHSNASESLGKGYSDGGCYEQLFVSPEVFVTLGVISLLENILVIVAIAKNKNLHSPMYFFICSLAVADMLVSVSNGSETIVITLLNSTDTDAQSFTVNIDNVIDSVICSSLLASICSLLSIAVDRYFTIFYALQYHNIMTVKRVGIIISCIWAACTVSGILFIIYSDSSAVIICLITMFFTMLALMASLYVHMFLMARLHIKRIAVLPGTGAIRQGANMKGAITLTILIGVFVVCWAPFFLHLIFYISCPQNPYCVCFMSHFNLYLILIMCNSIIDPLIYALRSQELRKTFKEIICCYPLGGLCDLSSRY

Molecule: Nc1ncnc2c1ncn2[C@@H]1O[C@H](COP(=O)(O)OP(=O)(O)OP(=O)(O)O)[C@@H](O)[C@H]1O [ATP]
- activation of scFv-P2Y6 (relative potency in words) (scFv-P2Y6): required much higher concentrations

Molecule: O=c1ccn([C@@H]2O[C@H](COP(=O)(O)OP(=O)(O)O)[C@@H](O)[C@H]2O)c(=O)[nH]1 [UDP]
- activation of scFv-P2Y6 (relative potency in words) (scFv-P2Y6): most potent activator

Molecule: O=c1ccn([C@@H]2O[C@H](COP(=O)(O)OP(=O)(O)OP(=O)(O)O)[C@@H](O)[C@H]2O)c(=O)[nH]1 [UTP]
- activation of scFv-P2Y6 (relative potency in words) (scFv-P2Y6): required much higher concentrations

Molecule: His Phe Arg Trp [HFRW]
- activation of melanocortin receptors (melanocortin receptors): fully activate melanocortin receptors, but only at very high concentrations

Molecule: agouti-related protein (SSRRCVRLHESCLGQQVPCCDPCATCYCRFFNAFCYCRKLGTAMNPCSRT; UniProt O00253 83-132, looked up) [AGRP, known antagonist of the MC4 receptor]
- effect of increasing amounts of inhibitor on stimulation by HFRW-Fc (FcR-MC4R; FcR-MC4R activated with anchored agonist HFRW-Fc): dramatically reduce the maximal stimulation levels
- effect of increasing amounts of inhibitor on α-MSH dose response (FcR-MC4R; FcR-MC4R activated with natural agonist α-MSH): shift the dose response curve of α-MSH progressively to the right

Molecule: α-MSH-Fc (from UniProt P01189 138-150) (Fc fusion)
- amount of compound for half-maximal stimulation of MC4R (CRE-luciferase) [1]: 100 fold less

Molecule: HFRW-Fc (Fc fusion, part only; not given: Fc and linker, not shown: a dimerising Fc or GST, also: Fc junction, isotype and linker not given here) [HFRW-Fc]
- half maximal level of the response (activation of MC4R, CRE-luciferase reporter, transiently transfected HEK293 cells) [2]: < 1 nM

B1: alpha2: glycoprotein hormone subunit alpha2 as anchor component fused to HFRW via a 13 amino acid spacer (protein)
chain: QEAVIPGCHLHPFNVTVRSDRQGTCQGSHVAQACVGHCESSAFPSRYSVLVASGYRHNITSVSQCCTISGLKKVKVQLQCVGSRREELEIFTARACQCDMCRLSRY
- binding between anchor and docking glycoprotein hormone subunits, seen as increased MC4R activity [3]: binds to OGH, hCG, and itself
